Experimental data as given in paper PMC10952495, “Glycosylation increases active site rigidity leading to improved enzyme stability and turnover” (The Febs Journal, 2023).

B1: pHRP (plant horseradish peroxidase, glycosylated) (Armoracia rusticana) (protein)
chain: QLTPTFYDNSCPNVSNIVRDTIVNELRSDPRIAASILRLHFHDCFVNGCDASILLDNTTSFRTEKDAFGNANSARGFPVIDRMKAAVESACPRTVSCADLLTIAAQQSVTLAGGPSWRVPLGRRDSLQAFLDLANANLPAPFFTLPQLKDSFRNVGLNRSSDLVALSGGHTFGKNQCRFIMDRLYNFSNTGLPDPTLNTTYLQTLRGLCPLNGNLSALVDFDLRTPTIFDNKYYVNLEEQKGLIQSDQELFSSPNATDTIPLVRSFANSTQTFFNAFVEAMDRMGNITPLTGTQGQIRLNCRVVNSNS
notes: native from horseradish root, 8 N-linked glycans, clinical diagnostic grade (Ortho Clinical Diagnostics), with and without C-terminal serine, monomer
B2: rHRP (recombinant horseradish peroxidase, nonglycosylated) (Armoracia rusticana) (protein)
chain: QLTPTFYDNSCPNVSNIVRDTIVNELRSDPRIAASILRLHFHDCFVNGCDASILLDNTTSFRTEKDAFGNANSARGFPVIDRMKAAVESACPRTVSCADLLTIAAQQSVTLAGGPSWRVPLGRRDSLQAFLDLANANLPAPFFTLPQLKDSFRNVGLNRSSDLVALSGGHTFGKNQCRFIMDRLYNFSNTGLPDPTLNTTYLQTLRGLCPLNGNLSALVDFDLRTPTIFDNKYYVNLEEQKGLIQSDQELFSSPNATDTIPLVRSFANSTQTFFNAFVEAMDRMGNITPLTGTQGQIRLNCRVVNSNS

Substrate: Nc1ccccc1N
Experiment: purified protein
Type: biochemical, Armoracia rusticana
Settings: 25.0 °C
[1] = holo enzyme 0.5 nM, 3% v/v H2O2, 50 mM Tris pH 8.0, 298 K
[2] = holo enzyme 10 nM, 3% v/v H2O2, 20 mM Bis-Tris pH 7.0, 298 K

Protein | Km [1] | kcat [1] | kcat/Km [1] | Km [2] | kcat [2] | kcat/Km [2]
B1 | 920 ± 100 µM | 917 ± 53 s⁻¹ | 1e+06 M⁻¹ s⁻¹ | – | – | –
B2 | – | – | – | 980 ± 130 µM | 86.2 ± 4.7 s⁻¹ | 88200 M⁻¹ s⁻¹
